# ± gives the uncertainty stated by the source.
# Experiment: protein stability index of a GFP-peptide fusion (yeast GPS) (PSI 1-4); higher = more stable; sorted into four equal gates, so the index is relative within each strain
# Method in brief: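 Yeast carrying a pooled library were grown to mid-log phase in leucine-free medium. Each library plasmid expresses Cherry and has a tiled 17-residue yeast protein peptide fused downstream of GFP. Cells were sorted into four equal gates by GFP/Cherry ratio, and plasmids from each gate were PCR-amplified, Illumina-sequenced and assigned to strains by barcode. Summing, across gates, the read frequency times the gate number gave each peptide's protein stability index.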
Sequence,protein stability index (doa10∆),protein stability index (pdr5∆),protein stability index (san1∆),protein stability index (ubr1∆)
KDEEIEKLLQQDREITN [MED8],3.26 ± 0.13,3.12 ± 0.13,3.06 ± 0.24,3.59 ± 0.14
KDEETTEKARLIDFEYV [RRI2],3.21 ± 0.098,3.5 ± 0.14,3.56 ± 0.073,3.13 ± 0.11
KDGEIMLWNLAAKKAMY [ASC1],2.55 ± 0.071,1.87 ± 0.05,2.26 ± 0.067,1.76 ± 0.097
KDIFRYMQRTVEEAHDF [RPB2],2.24 ± 0.075,1.45 ± 0.046,1.91 ± 0.12,1.3 ± 0.045
KDLQENLLVLRGKNEII [RPO21],1.31 ± 0.077,1.52 ± 0.056,1.6 ± 0.12,1.58 ± 0.071
KDNAIYNGFIDIFSNLS [YCS4],2.85 ± 0.076,2.72 ± 0.081,2.87 ± 0.07,2.77 ± 0.047
KDNARIYQVPEKDLEHW [POP1],–,–,2.26 ± 0.23,–
KDPDVPLVLLQQIPLLC [POP3],2.33 ± 0.055,2.57 ± 0.064,2.4 ± 0.06,2.47 ± 0.052
KDQIQAGKWFDPVLDWR [SIR4],3.56 ± 0.14,3.49 ± 0.094,2.95 ± 0.19,3.22 ± 0.07
KDRYINGDKKVDIYSLP [YMR129W/POM152],3.15 ± 0.091,2.77 ± 0.094,3.03 ± 0.042,3.23 ± 0.069
KDTIVKEAEDKTLVALE [RPC37],3.4 ± 0.11,3.11 ± 0.093,3.33 ± 0.19,3.18 ± 0.097
KEDEPVVARRSNSANVS [ITC1],3.07 ± 0.064,3.06 ± 0.068,2.57 ± 0.048,2.4 ± 0.05
KEDTVSWFKQKYDADVL [RPL11A],1.5 ± 0.069,1.43 ± 0.055,1.57 ± 0.1,1.53 ± 0.06
KEENDEGLSAQIAFDLV [RPN2],3.4 ± 0.14,3.56 ± 0.098,3.44 ± 0.076,3.33 ± 0.055
KEFKGIKVTVQLKIQNR [RPL12A],1.3 ± 0.08,1.62 ± 0.071,–,2.4 ± 0.09
KEGASTNWDDHAIIIFG [YMR153W/NUP53],2.86 ± 0.094,3.05 ± 0.075,3.27 ± 0.095,2.59 ± 0.059
KEISTRVFNAKDTTGPK [YCS4],3.04 ± 0.11,2.91 ± 0.13,3.21 ± 0.081,2.99 ± 0.089
KELMLQSKKLIEEKLSS [YIL149C/MLP2],2.95 ± 0.12,2.96 ± 0.11,2.72 ± 0.11,3.05 ± 0.07
KENKKRKNFKMGPLYQN [IRR1],1.33 ± 0.046,1.99 ± 0.08,2.05 ± 0.078,2.13 ± 0.059
KENLSKSSWRQEWLANL [SIR4],1.98 ± 0.048,1.68 ± 0.034,1.92 ± 0.07,2.55 ± 0.026

Sequence,protein stability index (doa10∆),protein stability index (pdr5∆),protein stability index (san1∆),protein stability index (ubr1∆)
KEPRLVIVTDPRLDAQA [RPS0B],3.41 ± 0.25,3.42 ± 0.17,–,2.61 ± 0.16
KERYTVEDELTESIALS [RRI1],3.1 ± 0.065,3.29 ± 0.052,3.11 ± 0.075,3.23 ± 0.058
KESEISHNENKMDFSSK [YIL149C/MLP2],2.99 ± 0.086,3 ± 0.093,3.16 ± 0.086,3.19 ± 0.24
KESWDPNTTKTKLRAFV [YGR119C/NUP57],3.5 ± 0.22,2.93 ± 0.19,3.37 ± 0.12,2.77 ± 0.1
KEVASLPNKSTISKTVS [FAS2],3.09 ± 0.12,3.05 ± 0.12,3 ± 0.08,3.21 ± 0.14
KFHSELQYLDKHIKNLE [RPN12],3.14 ± 0.12,2.7 ± 0.17,2.84 ± 0.13,3.15 ± 0.072
KFILSGFIFTSMILEAI [RRI2],1.58 ± 0.06,1.2 ± 0.035,1.17 ± 0.11,1.11 ± 0.048
KFLREVFVDGEANWPLP [RPO21],2.85 ± 0.085,3.16 ± 0.079,3.04 ± 0.093,3.12 ± 0.074
KFNNGVVIAADTRSTQG [PUP1],1.6 ± 0.066,2.4 ± 0.13,2.2 ± 0.2,2.7 ± 0.095
KFPDMGSLWVEFCDEPS [RPB5],2.75 ± 0.044,2.89 ± 0.06,2.9 ± 0.066,2.96 ± 0.045
KFQLKKVLCLAVAVGNV [RPL1A],1.63 ± 0.047,1.25 ± 0.051,1.27 ± 0.09,1.15 ± 0.033
KGGEQISQLYSDAVMAE [YJL041W/NSP1],2.25 ± 0.12,2.01 ± 0.12,2.19 ± 0.14,2.33 ± 0.13
KGPRFRKLTSQEINDRL [PRE8],3.09 ± 0.098,3.19 ± 0.11,3.06 ± 0.18,3.58 ± 0.093
KHAEFDLSLLGYCDDIA [SIR2],3 ± 0.088,2.68 ± 0.066,2.99 ± 0.056,2.32 ± 0.063
KHGTYDKLDDDGLIAPG [RPB2],3.02 ± 0.21,2.92 ± 0.24,–,–
KHKKKHLKHENANDETT [RPB4],2.92 ± 0.053,2.84 ± 0.085,2.84 ± 0.11,3.19 ± 0.074
KHLEDNTLLVTGPFKVN [RPL6B],3.03 ± 0.18,2.53 ± 0.16,3.08 ± 0.093,1.78 ± 0.072
KHVGFELLSMGNAKESK [SRP72],2.88 ± 0.11,2.03 ± 0.14,2.4 ± 0.18,3.24 ± 0.14
KHWGGGILGNKAQAKMD [RPL8A],3.39 ± 0.13,3.47 ± 0.11,3.53 ± 0.066,3.35 ± 0.087
KHWTEKSLHEMNERDWR [PRP28],3.55 ± 0.21,3.02 ± 0.3,2.97 ± 0.2,–

# From the supplement of paper PMC9732359
